Test results published in patent publication US20110251126A1, “INTESTINAL TREATMENT” (priority 2008, published 2011).
Square brackets hold non-standard residues; d marks the D form. Ends that are not written are not given here. Nle = CCCC[C@H](N)C(=O)O

B1: hPP2-36 (peptide)
peptide: PLEPVYPGDNATPEQMAQYAADLRRYINMLTRPRY-NH2
B2: [Nle17,Nle30]hPP3-36 (peptide)
peptide: LEPVYPGDNATPEQ[Nle]AQYAADLRRYIN[Nle]LTRPRY
modifications: ends and bridges not checked
B3: [Ala30]hPP (peptide)
peptide: APLEPVYPGDNATPEQMAQYAADLRRYINALTRPRY
modifications: ends and bridges not checked
B4: [Nle17,Nle30]hPP (peptide)
peptide: APLEPVYPGDNATPEQXAQYAADLRRYINXLTRPRY
modifications: norleucine (Nle) at positions 17 and 30
B5: [Glu10]hPP (peptide)
peptide: APLEPVYPGENATPEQMAQYAADLRRYINMLTRPRY
modifications: ends and bridges not checked
B6: [Glu10,Leu17,Thr30]hPP (peptide)
peptide: APLEPVYPGENATPEQLAQYAADLRRYINTLTRPRY
modifications: ends and bridges not checked
B7: [Asn30]hPP (peptide)
peptide: APLEPVYPGDNATPEQMAQYAADLRRYINNLTRPRY
modifications: ends and bridges not checked
B8: [Gln30]hPP (peptide)
peptide: APLEPVYPGDNATPEQMAQYAADLRRYINQLTRPRY
modifications: ends and bridges not checked
B9: [Thr30]hPP (peptide)
peptide: APLEPVYPGDNATPEQMAQYAADLRRYINTLTRPRY
modifications: ends and bridges not checked
B10: [Thr30]hPP2-36 (peptide)
peptide: PLEPVYPGDNATPEQMAQYAADLRRYINTLTRPRY
modifications: ends and bridges not checked
B11: [Gln30]hPP2-36 (peptide)
peptide: PLEPVYPGDNATPEQMAQYAADLRRYINQLTRPRY
modifications: ends and bridges not checked
B12: [Asn30]hPP2-36 (peptide)
peptide: PLEPVYPGDNATPEQMAQYAADLRRYINNLTRPRY
modifications: ends and bridges not checked
B13: [Glu10]hPP2-36 (peptide)
peptide: PLEPVYPGENATPEQMAQYAADLRRYINMLTRPRY
modifications: ends and bridges not checked
B14: [Nle17,Nle30]hPP2-36 (peptide)
peptide: PLEPVYPGDNATPEQXAQYAADLRRYINXLTRPRY
modifications: norleucine (Nle) at positions 17 and 30, numbered on full-length hPP (SEQ ID No:3)
B15: [Glu10,Leu17,Thr30]hPP2-36 (peptide)
peptide: PLEPVYPGENATPEQLAQYAADLRRYINTLTRPRY
modifications: ends and bridges not checked
B16: [Ala30]hPP3-36 (peptide)
peptide: LEPVYPGDNATPEQMAQYAADLRRYINALTRPRY
modifications: ends and bridges not checked
B17: [Gln30]hPP3-36 (peptide)
peptide: LEPVYPGDNATPEQMAQYAADLRRYINQLTRPRY
modifications: ends and bridges not checked
B18: [Glu10]hPP3-36 (peptide)
peptide: LEPVYPGENATPEQMAQYAADLRRYINMLTRPRY
modifications: ends and bridges not checked
B19: [Asn30]hPP3-36 (peptide)
peptide: LEPVYPGDNATPEQMAQYAADLRRYINNLTRPRY
modifications: ends and bridges not checked
B20: [Glu10,Leu17,Thr30]hPP3-36 (peptide)
peptide: LEPVYPGENATPEQLAQYAADLRRYINTLTRPRY
modifications: ends and bridges not checked
B21: [Thr30]hPP3-36 (peptide)
peptide: LEPVYPGDNATPEQMAQYAADLRRYINTLTRPRY
modifications: ends and bridges not checked

molecular target: human Y4 receptor (human, UniProt P50391 1-375); assay: cell-based or functional assay
Sequence (P50391 whole entry): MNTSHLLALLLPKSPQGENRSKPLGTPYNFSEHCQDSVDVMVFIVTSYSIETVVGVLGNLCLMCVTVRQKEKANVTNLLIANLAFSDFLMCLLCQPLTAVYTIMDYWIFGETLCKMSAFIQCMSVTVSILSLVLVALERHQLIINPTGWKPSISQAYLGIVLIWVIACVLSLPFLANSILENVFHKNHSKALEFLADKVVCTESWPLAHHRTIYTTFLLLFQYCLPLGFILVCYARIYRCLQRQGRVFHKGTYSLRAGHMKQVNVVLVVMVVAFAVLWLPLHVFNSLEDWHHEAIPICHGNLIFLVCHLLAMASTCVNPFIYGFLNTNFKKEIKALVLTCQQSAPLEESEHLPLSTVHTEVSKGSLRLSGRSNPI

Binder | agonist potency (inositol phosphate turnover, transfected COS-7 cells): fold greater at Y4 than at Y1 receptor [fold] | agonist potency (inositol phosphate turnover, transfected COS-7 cells): fold greater at Y4 than at Y2 receptor [fold]
B1 | ≥ 200 | ≥ 1000
B2 | ≥ 200 | ≥ 1000
B3 | ≥ 200 | ≥ 1000
B4 | ≥ 200 | ≥ 1000
B5 | ≥ 200 | ≥ 1000
B6 | ≥ 200 | ≥ 1000
B7 | ≥ 200 | ≥ 1000
B8 | ≥ 200 | ≥ 1000
B9 | ≥ 200 | ≥ 1000
B10 | ≥ 200 | ≥ 1000
B11 | ≥ 200 | ≥ 1000
B12 | ≥ 200 | ≥ 1000
B13 | ≥ 200 | ≥ 1000
B14 | ≥ 200 | ≥ 1000
B15 | ≥ 200 | ≥ 1000
B16 | ≥ 200 | ≥ 1000
B17 | ≥ 200 | ≥ 1000
B18 | ≥ 200 | ≥ 1000
B19 | ≥ 200 | ≥ 1000
B20 | ≥ 200 | ≥ 1000
B21 | ≥ 200 | ≥ 1000
